Assay results taken from patent US20210388105A1 (ELPISCIENCE SUZHOU BIOPHARMA, published 2021).

T1: human CD39 (full length, on cells) (human, UniProt P49961 1-510)
T1 construct: Recombinant on CHOK1-hCD39 cells or natural on SK-MEL-28, SK-MEL-5 and MOLP-8 cells; the cell line is named under assay; also called hCD39; ENTPD1
T1 sequence: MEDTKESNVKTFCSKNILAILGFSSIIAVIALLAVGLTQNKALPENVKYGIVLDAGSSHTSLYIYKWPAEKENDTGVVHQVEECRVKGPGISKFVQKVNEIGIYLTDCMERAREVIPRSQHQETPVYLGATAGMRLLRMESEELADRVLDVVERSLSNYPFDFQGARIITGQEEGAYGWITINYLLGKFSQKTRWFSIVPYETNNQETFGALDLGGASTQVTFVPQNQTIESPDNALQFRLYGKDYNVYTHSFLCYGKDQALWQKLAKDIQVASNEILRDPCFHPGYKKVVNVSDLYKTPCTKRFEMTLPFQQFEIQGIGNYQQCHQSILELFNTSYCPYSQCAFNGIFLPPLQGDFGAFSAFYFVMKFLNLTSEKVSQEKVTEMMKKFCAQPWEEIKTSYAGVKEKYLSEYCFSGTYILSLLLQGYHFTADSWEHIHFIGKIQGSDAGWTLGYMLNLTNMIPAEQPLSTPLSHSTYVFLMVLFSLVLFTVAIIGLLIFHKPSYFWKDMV


Target: T1, human CD39 (full length, on cells)
Assay: FACS, MOLP-8 cells
Method: Similarly, human CD39 expressing cells SK-MEL-5, SK-MEL-28 or MOLP-8, were incubated with a gradient concentration of anti-CD39 antibodies for 30 minutes at 4° C. Cells were washed 3 times using FACS buffer and next incubated with fluorescence labelled secondary antibody (goat-anti-mouse IgG or goat anti-human IgG) for 30 minutes at 4° C. Cells were washed 3 times and then re-suspended in FACS buffer and analyzed by flow cytometry analysis on BD Celesta. Data plotted and analyzed using GraphPad Prism 8.02.
The binding affinity of the humanized antibodies for c23 was determined by FACS, using similar methods as described in Example 3.2. The c23 humanized antibody clones showing good binding affinity are listed in below Table 19 and Table 20, and also shown in FIGS. 7A, 7B and FIG. 8. EC₅₀ is the concentration of the indicated antibodies to reach 50% of the signal in this assay.

Row | Binder | EC50 [nM] | binding result
1 | hu23.H1L1 (antibody, V domains shown, humanized c23) VH: QVQLVQSGAEVKKPGASVKVSCKASGYNLKDTFLHWVRQAPGQRLEWMGRIDPANGNIKYDPKFQGRVTITRDTSASTAYMELSSLRSEDTAVYYCARSPYYYGSGYRIFDVWGQGTTVTVSS VL: EIVLTQSPATLSLSPGERATLSCSAFSSVNYMHWYQQKPGQAPRLLIYTTSNLASGIPARFSGSGSGTDFTLTISSLEPEDFAVYYCQQRSTYPFTFGQGTKLEIK | ~77.1 | –
2 | hu23.H6L7 (antibody, V domains shown, humanized c23) VH: EVQLVQSGAEVKKPGASVKLSCKASGYNLKDTFLHWVRQAPGQGLEWIGRIDPANGNIKYDPKFQGRATITADTSANTAYMELISLRSEDTAVYYCANSPYYYGSGYRIFDVWGQGTTVTVSS VL: QIVLTQSPATLSASPGERVTITCSAFSSVNYMHWYQQKPGQAPKLLIYTTSNLASGVPTRFSGSGSGTSYTLTISSMEPEDFAVYYCQQRSTYPFTFGQGTKLEIK | 0.122 | –
3 | hu23.H6L6 (antibody, V domains shown, humanized c23) VH: EVQLVQSGAEVKKPGASVKLSCKASGYNLKDTFLHWVRQAPGQGLEWIGRIDPANGNIKYDPKFQGRATITADTSANTAYMELISLRSEDTAVYYCANSPYYYGSGYRIFDVWGQGTTVTVSS VL: QIVLTQSPATLSASPGERATLSCSAFSSVNYMHWYQQKPGQAPKLLIYTTSNLASGVPTRFSGSGSGTSYTLTISSMEPEDFAVYYCQQRSTYPFTFGQGTKLEIK | 0.237 | –
4 | hu23.H5L7 (antibody, V domains shown, humanized c23) VH: QVQLVQSGAEVKKPGASVKVSCKASGYNLKDTFLHWVRQAPGQGLEWMGRIDPANGNIKYDPKFQGRVTITADTSANTAYMELISLRSEDTAVYYCANSPYYYGSGYRIFDVWGQGTTVTVSS VL: QIVLTQSPATLSASPGERVTITCSAFSSVNYMHWYQQKPGQAPKLLIYTTSNLASGVPTRFSGSGSGTSYTLTISSMEPEDFAVYYCQQRSTYPFTFGQGTKLEIK | 0.179 | –
5 | hu23.H3L3 (antibody, V domains shown, humanized c23) VH: QVQLVQSGAEVKKPGASVKLSCKASGYNLKDTFLHWVRQAPGQGLEWIGRIDPANGNIKYDPKFQGRATITADTSASTAYMELSSLRSEDTAVYYCANSPYYYGSGYRIFDVWGQGTTVTVSS VL: EIVLTQSPATLSASPGERATLSCSAFSSVNYMHWYQQKPGQAPRLLIYTTSNLASGIPARFSGSGSGTDYTLTISSMEPEDFAVYYCQQRSTYPFTFGQGTKLEIK | 3.29 | –
6 | hu23.H2L1 (antibody, V domains shown, humanized c23) VH: QVQLVQSGAEVKKPGASVKVSCKASGYNLKDTFLHWVRQAPGQGLEWMGRIDPANGNIKYDPKFQGRVTITADTSASTAYMELSSLRSEDTAVYYCANSPYYYGSGYRIFDVWGQGTTVTVSS VL: EIVLTQSPATLSLSPGERATLSCSAFSSVNYMHWYQQKPGQAPRLLIYTTSNLASGIPARFSGSGSGTDFTLTISSLEPEDFAVYYCQQRSTYPFTFGQGTKLEIK | 65.9 | –
7 | hu23.H4L2 (antibody, V domains shown, humanized c23) VH: QVQLVQSGAEVKKPGASVKLSCKASGYNLKDTFLHWVKQAPGQGLEWIGRIDPANGNIKYDPKFQGRATLTADTSASTAYLELSSLRSEDTAVYYCANSPYYYGSGYRIFDVWGQGTTVTVSS VL: EIVLTQSPATLSLSPGERATLSCSAFSSVNYMHWYQQKPGQAPRLLIYTTSNLASGIPARFSGSGSGTDYTLTISSLEPEDFAVYYCQQRSTYPFTFGQGTKLEIK | 1.15 | –
8 | hu23.H2L4 (antibody, V domains shown, humanized c23) VH: QVQLVQSGAEVKKPGASVKVSCKASGYNLKDTFLHWVRQAPGQGLEWMGRIDPANGNIKYDPKFQGRVTITADTSASTAYMELSSLRSEDTAVYYCANSPYYYGSGYRIFDVWGQGTTVTVSS VL: EIVLTQSPATLSASPGERVTISCSAFSSVNYMHWYQQKPGQAPRLLIYTTSNLASGIPARFSGSGSGTDYTLTISSMEPEDFAVYYCQQRSTYPFTFGQGTKLEIK | 1.46 | –
9 | hu23.H2L3 (antibody, V domains shown, humanized c23) VH: QVQLVQSGAEVKKPGASVKVSCKASGYNLKDTFLHWVRQAPGQGLEWMGRIDPANGNIKYDPKFQGRVTITADTSASTAYMELSSLRSEDTAVYYCANSPYYYGSGYRIFDVWGQGTTVTVSS VL: EIVLTQSPATLSASPGERATLSCSAFSSVNYMHWYQQKPGQAPRLLIYTTSNLASGIPARFSGSGSGTDYTLTISSMEPEDFAVYYCQQRSTYPFTFGQGTKLEIK | 2.03 | –
10 | hu23.H6L1 (antibody, V domains shown, humanized c23) VH: EVQLVQSGAEVKKPGASVKLSCKASGYNLKDTFLHWVRQAPGQGLEWIGRIDPANGNIKYDPKFQGRATITADTSANTAYMELISLRSEDTAVYYCANSPYYYGSGYRIFDVWGQGTTVTVSS VL: EIVLTQSPATLSLSPGERATLSCSAFSSVNYMHWYQQKPGQAPRLLIYTTSNLASGIPARFSGSGSGTDFTLTISSLEPEDFAVYYCQQRSTYPFTFGQGTKLEIK | 0.246 | –
11 | hu23.H3L2 (antibody, V domains shown, humanized c23) VH: QVQLVQSGAEVKKPGASVKLSCKASGYNLKDTFLHWVRQAPGQGLEWIGRIDPANGNIKYDPKFQGRATITADTSASTAYMELSSLRSEDTAVYYCANSPYYYGSGYRIFDVWGQGTTVTVSS VL: EIVLTQSPATLSLSPGERATLSCSAFSSVNYMHWYQQKPGQAPRLLIYTTSNLASGIPARFSGSGSGTDYTLTISSLEPEDFAVYYCQQRSTYPFTFGQGTKLEIK | 1.34 | –

Now from value to binder:

Row | EC50 [nM] | binding result | Binder
12 | 0.25 | – | hu23.H7L7 (antibody, V domains shown, humanized c23) VH: EVQLVQSGAEVKKPGASVKLSCKASGYNLKDTFLHWVKQAPGQGLEWIGRIDPANGNIKYDPKFQGKATLTADTSANTAYLELISLRSEDTAVYYCANSPYYYGSGYRIFDVWGQGTTVTVSS VL: QIVLTQSPATLSASPGERVTITCSAFSSVNYMHWYQQKPGQAPKLLIYTTSNLASGVPTRFSGSGSGTSYTLTISSMEPEDFAVYYCQQRSTYPFTFGQGTKLEIK
13 | – | no binding | hu23.H4L1 (antibody, V domains shown, humanized c23) VH: QVQLVQSGAEVKKPGASVKLSCKASGYNLKDTFLHWVKQAPGQGLEWIGRIDPANGNIKYDPKFQGRATLTADTSASTAYLELSSLRSEDTAVYYCANSPYYYGSGYRIFDVWGQGTTVTVSS VL: EIVLTQSPATLSLSPGERATLSCSAFSSVNYMHWYQQKPGQAPRLLIYTTSNLASGIPARFSGSGSGTDFTLTISSLEPEDFAVYYCQQRSTYPFTFGQGTKLEIK
14 | 1.87 | – | hu23.H4L3 (antibody, V domains shown, humanized c23) VH: QVQLVQSGAEVKKPGASVKLSCKASGYNLKDTFLHWVKQAPGQGLEWIGRIDPANGNIKYDPKFQGRATLTADTSASTAYLELSSLRSEDTAVYYCANSPYYYGSGYRIFDVWGQGTTVTVSS VL: EIVLTQSPATLSASPGERATLSCSAFSSVNYMHWYQQKPGQAPRLLIYTTSNLASGIPARFSGSGSGTDYTLTISSMEPEDFAVYYCQQRSTYPFTFGQGTKLEIK
15 | 0.262 | – | hu23.H5L1 (antibody, V domains shown, humanized c23) VH: QVQLVQSGAEVKKPGASVKVSCKASGYNLKDTFLHWVRQAPGQGLEWMGRIDPANGNIKYDPKFQGRVTITADTSANTAYMELISLRSEDTAVYYCANSPYYYGSGYRIFDVWGQGTTVTVSS VL: EIVLTQSPATLSLSPGERATLSCSAFSSVNYMHWYQQKPGQAPRLLIYTTSNLASGIPARFSGSGSGTDFTLTISSLEPEDFAVYYCQQRSTYPFTFGQGTKLEIK
16 | 2.77 | – | hu23.H1L3 (antibody, V domains shown, humanized c23) VH: QVQLVQSGAEVKKPGASVKVSCKASGYNLKDTFLHWVRQAPGQRLEWMGRIDPANGNIKYDPKFQGRVTITRDTSASTAYMELSSLRSEDTAVYYCARSPYYYGSGYRIFDVWGQGTTVTVSS VL: EIVLTQSPATLSASPGERATLSCSAFSSVNYMHWYQQKPGQAPRLLIYTTSNLASGIPARFSGSGSGTDYTLTISSMEPEDFAVYYCQQRSTYPFTFGQGTKLEIK
17 | 0.593 | – | hu23.H6L5 (antibody, V domains shown, humanized c23) VH: EVQLVQSGAEVKKPGASVKLSCKASGYNLKDTFLHWVRQAPGQGLEWIGRIDPANGNIKYDPKFQGRATITADTSANTAYMELISLRSEDTAVYYCANSPYYYGSGYRIFDVWGQGTTVTVSS VL: QIVLTQSPATLSLSPGERATLSCSAFSSVNYMHWYQQKPGQAPRLLIYTTSNLASGIPTRFSGSGSGTSYTLTISSLEPEDFAVYYCQQRSTYPFTFGQGTKLEIK
18 | 1.61 | – | hu23.H3L4 (antibody, V domains shown, humanized c23) VH: QVQLVQSGAEVKKPGASVKLSCKASGYNLKDTFLHWVRQAPGQGLEWIGRIDPANGNIKYDPKFQGRATITADTSASTAYMELSSLRSEDTAVYYCANSPYYYGSGYRIFDVWGQGTTVTVSS VL: EIVLTQSPATLSASPGERVTISCSAFSSVNYMHWYQQKPGQAPRLLIYTTSNLASGIPARFSGSGSGTDYTLTISSMEPEDFAVYYCQQRSTYPFTFGQGTKLEIK
